From patent publication US5175251A, “Antimetastatic peptides with laminin activity” (SRI International, priority 1991, dated 1992)

B1: CTAP-III: naturally occurring polypeptide isolated from human platelets that is capable of activating connective tissue cells (protein, UniProt P02775 44-128, looked up)
Connective tissue-activating …: NLAKGKEESLDSDLYAELRCMCIKTTSGIHPKNIQSLEVIGKGTHCNQVEVIATLKDGRKICLDPDAPRIKKIVQKKLAGDESAD
modifications: Connective tissue-activating peptide III

Assays:
Isoelectric point = format: physicochemical
From the text: The anion exchange resin is usually employed in the form of a packed column. The column is equilibrated using conventional techniques and the solution of the cleaved reaction products is loaded onto the column. […] The peptide is eluted by increasing the ionic strength of the buffered solution, typically from 0 to 0.75M NaCl. The column can be regenerated by washing with solutions of NaOH and nonionic detergents to remove any residual contaminating protein or solubilizing agents and equilibrating the column.
For example, when the laminin B1 peptide is fused to CTAP-III(Leu21), an anion exchange column (for example, either Mono-Q or Q Sepharose from Pharmacia) may be employed to separate the two proteins on the basis of differences in their isoelectric points (LamB1 -40(Ser27) peptide=3.65, CTAP-III=7.8). […] Elution of the peptide may be performed with a linear gradient (0 to 0.5M) of NaCl. Pooled fractions of LamB1 -40, typically greater than 90% pure, may optionally be subjected to further purification using hydrophobic interaction chromatography (HIC), gel filtration chromatography, reverse-phase liquid chromatography or combinations thereof.

[1] = tested on: B16/F10 cells (murine melanoma); assay: Cell adhesion assay: tumor cells bound to peptide-coated wells; format: cell-based; details: summary of Table 1
Description: The cell-adhesion assay measures the binding of tumor cells to laminin immobilized on the surface of a culture dish. The peptides of the invention can be substituted for the immobilized laminin to measure the binding constants of the peptides and compare binding constants of the peptides of the invention with laminin or other known laminin peptides. In this assay, solubilized peptides are incubated on tissue culture well plates and nonspecific cell binding is blocked by the addition of bovine serum albumin (BSA). Tumor cells are added to the wells and nonadherent cells are removed by washing with phosphate-buffered saline (PBS). Attached cells may be trypsinized and counted electronically or the cells may be fixed, stained with chemical agents, such as crystal violet solution and the optical density of the solutions determined using a microtiter plate reader in the range from 590-405 nm. Extrapolation of OD to the number of cells bound may be obtained by comparison of readings to a standard curve obtained by incubating various numbers of cells in tissue culture wells for a time sufficient to allow firm attachment but not permit significant cell division (about 5 h), and washing and staining as above. […]

Molecule	isoelectric point (pI) (Isoelectric point)	Binding of metastatic tumor cells compared with YIGSR or CDPGYIGSR [1]
NH2 -Pro-Cys-Pro-Asp-Gly-Pro-Asp-Ser-Gly-Arg-Gln-Phe-Ala-Arg-Ser-Cys-Tyr -Gln-Asp-Pro-Val-Thr-Leu-Gln-Leu-Ala-Ser-Val-Cys-Asp-Pro-Gly-Tyr-Ile-Gly-Ser-Arg-Cys-Asp-Asp-OH (H-PCPDGPDSGRQFARSCYQDPVTLQLASVCDPGYIGSRCDD-OH; cysteine pairing not given here) [LamB1 -40(Ser27), recombinant 40 amino acid laminin B1 peptide, Cys at position 923 replaced with serine]	3.65	binds metastatic tumor cells more effectively
B1	7.8	
